Results: PMC6139261 (Archives of biochemistry and biophysics, 2018)
The star is where a group is joined. FITC = O=C1OC2(c3ccc(O)cc3Oc3cc(O)ccc32)c2ccc(NC(=S)*)cc21

biological target: substrate-trapping ClpB variant (E279Q/E678Q) (Escherichia coli, UniProt P63284, E279Q/E678Q); test: not given; assay type: binding; conditions: ClpB with ATP, buffer A, room temperature

`O=C1OC2(c3ccc(O)cc3Oc3cc(O)ccc32)c2ccccc21` [fluorescein] was tested, and the “anisotropy change of free label with ClpB” value was “did not affect the anisotropy”.

biological target: ATP-hydrolysis deficient substrate-trapping ClpB variant (E279Q/E678Q) (Escherichia coli, UniProt P63284 1-857, E279Q | E678Q); test: fluorescence polarisation; conditions: not given

Going from {FITC}-AHAWQHQGKTLFISRKTYRI-NH2 [peptide B1] to {FITC}-RLGWFNQ-NH2 [peptide B2T2], the Kd rises from 46.8 ± 1.5 nM to > 1000 nM.

Compared with {FITC}-QLWQGQFRNLRRKTFFKKLN-NH2 [peptide B2N], {FITC}-QGQFRNLRRKQLWTFFLNKK-NH2 [peptide B2A] is 1.7-fold lower in Kd: 17.5 ± 0.92 nM for the first, 10.2 ± 0.8 nM for the second.

Going from {FITC}-QQFRNRRKLTFLKKLGWFNQ-NH2 [peptide B2B] to {FITC}-KTLFISR-NH2 [peptide B1T], the Kd rises from 11.5 ± 0.52 nM to 329 ± 39 nM (29-fold).

First: FHAWQHQGKTLAISRKTYRI (FITC on the N-terminus; C-terminal amide) [peptide B1N]
Second: {FITC}-KLFFNLR-NH2 [peptide B2T1]
The Kd of the first is 130-fold lower: 7.26 ± 0.32 nM for the first, 912 ± 231 nM for the second. The first binds more tightly here.
